Results reported in PMC9166816, “RNF219 regulates CCR4-NOT function in mRNA translation and deadenylation” (Scientific Reports, 2022).

Biological target: CCR4-NOT complex (human (endogenous in human cell lines), UniProt A5YKK6 1-2376; Q9NZN8 1-540; O75175 1-753; Q9H9A5 1-744; Q9UKZ1 1-510)
Experiment: cell-based or functional assay

Binder | Renilla/Firefly luciferase ratio (RL/FL) of the 5BoxB reporter with tethered NHA-RNF219 [RL/FL ratio] | Renilla/Firefly luciferase ratio (RL/FL) of the 5BoxB reporter with tethered NHA-RNF219-Id (lambdaN-HA tagged form of the allele) [RL/FL ratio]
lambdaN-peptide and HA-tagged RNF219 (NHA-RNF219) (natural protein) MAQTVQNVTLSLTLPITCHICLGKVRQPVICINNHVFCSICIDLWLKNNSQCPACRVPITPENPCKEIIGGTSESEPMLSHTVRKHLRKTRLELLHKEYEDEIDCLQKEVEELKSKNLSLESQIKTILDPLTLVQGNQNEDKHLVTDNPSKINPETVAEWKKKLRTANEIYEKVKDDVDKLKEANKKLKLENGGLVRENLRLKAEVDNRSPQKFGRFAVAALQSKVEQYERETNRLKKALERSDKYIEELESQVAQLKNSSEEKEAMNSICQTALSADGKGSKGSEEDVVSKNQGDSARKQPGSSTSSSSHLAKPSSSRLCDTSSARQESTSKADLNCSKNKDLYQEQVEVMLDVTDTSMDTYLEREWGNKPSDCVPYKDEELYDLPAPCTPLSLSCLQLSTPENRESSVVQAGGSKKHSNHLRKLVFDDFCDSSNVSNKDSSEDDISRSENEKKSECFSSPKTGFWDCCSTSYAQNLDFESSEGNTIANSVGEISSKLSEKSGLCLSKRLNSIRSFEMNRTRTSSEASMDAAYLDKISELDSMMSESDNSKSPCNNGFKSLDLDGLSKSSQGSEFLEEPDKLEEKTELNLSKGSLTNDQLENGSEWKPTSFFLLSPSDQEMNEDFSLHSSSCPVTNEIKPPSCLFQTEFSQGILLSSSHRLFEDQRFGSSLFKMSSEMHSLHNHLQSPWSTSFVPEKRNKNVNQSTKRKIQSSLSSASPSKATKS | 0.307 | –
RNF219-Id, CCR4-NOT complex interaction defective RNF219 allele (natural protein) MAQTVQNVTLSLTLPITCHICLGKVRQPVICINNHVFCSICIDLWLKNNSQCPACRVPITPENPCKEIIGGTSESEPMLSHTVRKHLRKTRLELLHKEYEDEIDCLQKEVEELKSKNLSLESQIKTILDPLTLVQGNQNEDKHLVTDNPSKINPETVAEWKKKLRTANEIYEKVKDDVDKLKEANKKLKLENGGLVRENLRLKAEVDNRSPQKFGRFAVAALQSKVEQYERETNRLKKALERSDKYIEELESQVAQLKNSSEEKEAMNSICQTALSADGKGSKGSEEDVVSKNQGDSARKQPGSSTSSSSHLAKPSSSRLCDTSSARQESTSKADLNCSKNKDLYQEQVEVMLDVTDTSMDTYLEREWGNKPSDCVPYKDEELYDLPAPCTPLSLSCLQLSTPENRESSVVQAGGSKKHSNHLRKLVFDDFCDSSNVSNKDSSEDDISRSENEKKSECFSSPKTGFWDCCSTSYAQNLDFESSEGNTIANSVGEISSKLSEKSGLCLSKRLNSIRSFEMNRTRTSSEASMDAAYLDKISVENSKSPCNNGFKSLDLDGLSKSSQGSEFLEEPDKLEEKTELNLSKGSLTNDQLENGSEWKPTSFFLLSPSDQEMNEDFSLHSSSCPVTNEIKPPSCLFQTEFSQGILLSSSHRLFEDQRFGSSLFKMSSEMHSLHNHLQSPWSTSFVPEKRNKNVNQSTKRKIQSSLSSASPSKATKS | – | 1.5
